These are literature values, as cited in paper PMC8296306.

Data set [1] deals with Cxcl1/KC (Mus musculus) (UniProt P12850).
The target of data set [2] is Cxcl2/MIP2 (Mus musculus) (UniProt P10889).

As usually defined, the Kd is the free concentration of one partner at which half of the binding sites on the other are occupied at equilibrium, for simple one-to-one binding. As to Cxcl1/KC (from UniProt P12850), in data set [1], the Kd was 35 µM. For the substance Cxcl2/MIP2 (from UniProt P10889), the Kd in data set [2] is 15 µM.
